In patent publication US11779592B2, “Inhibition of NGLY1 for the treatment of cancer” (University of North Texas Health Science Center, priority 2017, dated 2023):

Columns and labels:
[1] = tested on: HepG2 liver cancer cells; experiment: Cell morphology of HepG2 cells with NGLY1 knockdown; format: cell-based
[2] = tested on: U-251MG glioblastoma cells; experiment: Cell morphology of U-251MG cells with NGLY1 knockdown; format: cell-based
[3] = tested on: UACC257 cells; experiment: Cell morphology of UACC257 stable clones with dox-inducible shRNA; format: cell-based, human; details: 2 μM dox for 72 hours
Method: (FIG. 5A) The doxycycline (dox)-inducible pZIP-TRE3GS expression vector of non-targeting shRNA and NGLY1-targeting shRNA sequences. (FIG. 5B) The stable clones of UACC257 cells with dox-inducible shRNA. […] Cells with induced non-targeting (scramble)-shRNA maintain a morphology similar to the cells before dox induction. Cells were imaged after the treatment of 2 μM dox for 72 hours. BF: bright field. ZsGreen: green fluorescence protein. […] (FIG. 5E) The expression of human NGLY1-FLAG in SK-MEL-2 (SK) cells attenuates NGLY1-targeting shRNA-induced apoptosis. EV: empty vector, NGLY1-F: NGLY1-FLAG expression vector. […] All data were presented as mean±standard deviation (n=3, *P<0.05, […]). […] The cell viability curves of combinatorial treatment were plotted according to the doses of dox used in the treatment. Combination indexes were calculated using Calcusyn software. A combination index value <1 was considered synergistic. A combination index value <0.2 was considered highly synergistic. […]
(§1) The knockdown of NGLY1 expression in melanoma cells was achieved by the transduction of pZIP-TRE3GS lentiviral expression vectors that carry two independent shRNA sequences (Below; TransOMIC Technologies, Huntsville, AL). […] The expression of the shRNA sequences and an open reading frame of the ZsGreen reporter is driven by the TRE3GS doxycycline-inducible promoter. […]

[4] = tested on: NGLY1; experiment: NGLY1 expression in stable clones of melanoma cells (immunoblotting); format: cell-based, human; details: stable clones of MALME3M, UACC257 and SK-MEL-2 cells, 48-hour treatment of dox
Text: These NGLY1-targeting shRNA sequences and a scrambled (non-targeting) shRNA sequence were cloned into doxycycline (dox)-inducible, polycistronic green fluorescence protein (GFP)-shRNA expression constructs (a pZIP inducible lentiviral vector, TransOMIC). Stable clones have been generated with the shRNA expression constructs in multiple human melanoma cell lines, including MALME3M, UACC257, SK-MEL-2, and COLO829 melanoma cells. […] Similar knockdown effects were found in the stable clones of other melanoma cells with this particular NGLY1 shRNA sequence. […] Similar to human normal fibroblasts, normal melanocytes (FIG. 5D) and keratinocytes appeared to well tolerate NGLY1 knockdown and show no sign of increased cell death. In addition, SK-MEL-2, MALME3M cells that express inducible NGLY1 shRNA presented significant apoptosis, compared to their scrambled RNA-expressing counterparts. The expression of exogenous human NGLY1 in melanoma cells attenuated NGLY1-targeting shRNA-induced apoptosis (FIG. 5E).
as §1

[5] = tested on: SK-MEL-2 tumors; experiment: Xenograft tumor model with SK-MEL-2 cells carrying inducible shRNA; format: in vivo, mice
Text: (FIG. 14A) A schematic illustration of animal study design to test the in vivo antitumor efficacy of NGLY1 suppression in melanoma. (FIG. 14B) The volume changes of xenograted SK-MEL-2 tumors with the induction of NT-shRNA (n=10) and NGLY1-shRNA645 (n=8) for 35 days. Tumors were harvested at the end of the study for Western blotting analysis. Bars: median tumor volumes at the indicated time points. […] (FIG. 14C) The expression of NGLY1, GADD153, IRF3, and GFP (ZsGreen) proteins in selected tumors was analyzed by Western blotting. (FIG. 14D) The enhanced expression of IL-29 in the tumor tissues with NGLY1 knockdown was detected by immunofluorescence staining.
Six-week-old female NOD.CB17-Prkdc^scid/J mice (The Jackson Laboratory, Bar Harbor, ME) were group-housed under conditions of constant photoperiod (12 hours light: 12 hours dark) with ad libitum access to sterilized food and water. Since the animal work in this study was completed using an animal study service provided by the translational core laboratory at the University of Maryland, Baltimore, all experimental procedures and protocols utilizing mice were approved by the Institutional Animal Care and Use Committee at the University of Maryland. […] Tumors were measured weekly using calipers and their volumes calculated using a standard formula: width^2×length×0.52. Body weights were measured weekly. […]

B1: NGLY1-shRNA645: NGLY1-targeting shRNA sequence (SEQ ID NO: 5), dox-inducible lentiviral vector; used in the xenograft study (nucleic acid)
DNA: CCGAGUUUCAAAUAACAAUCAAUAGUGAAGCCACAGAUGUAUUGAUUGUUAUUUGAAACUCGAU
cell morphology [1]: morphology of apoptosis | cell morphology [2]: morphology of apoptosis | cell morphology [3]: morphological features of apoptosis | expression of NGLY1 [4]: largely suppressed | tumors that showed regression at the end of the study ([5]; after size increase during the initial 3-4 weeks of dox treatment): three out of eight | growth of melanoma tumors ([5]; dox-induced knockdown, 5 weeks): impeded
